Assay results reported in doi:10.1101/266643 (bioRxiv, 2018).

B1: NGF^R100W, mature form of the HSAN V mutant nerve growth factor, monobiotinylated, with AviTag (ligand)
chain: SSTHPVFHMGEFSVCDSVSVWVGDKTTATDIKGKEVTVLAEVNINNSVFRQYFFETKCRASNPVESGCRGIDSKHWNSYCTTTHTFVKALTTDEKQAAWWFIRIDTACVCVLSRKATRRGGGGLNDIFEAQKIEWHE
modifications: biotin on the AviTag (BirA co-expressed); conjugated to streptavidin-QD655 for the assays on cells
B2: wildtype nerve growth factor (wtNGF), monobiotinylated, with AviTag (ligand, mouse, UniProt P01139 122-241, looked up)
chain: SSTHPVFHMGEFSVCDSVSVWVGDKTTATDIKGKEVTVLAEVNINNSVFRQYFFETKCRASNPVESGCRGIDSKHWNSYCTTTHTFVKALTTDEKQAAWRFIRIDTACVCVLSRKATRRG
modifications: biotin on the AviTag (BirA co-expressed); conjugated to streptavidin-QD655 for the assays on cells

Biological target: TrkA receptor (tropomyosin receptor kinase A) on NIH3T3-TrkA cells (UniProt P04629 33-796)
Sequence (P04629 33-796): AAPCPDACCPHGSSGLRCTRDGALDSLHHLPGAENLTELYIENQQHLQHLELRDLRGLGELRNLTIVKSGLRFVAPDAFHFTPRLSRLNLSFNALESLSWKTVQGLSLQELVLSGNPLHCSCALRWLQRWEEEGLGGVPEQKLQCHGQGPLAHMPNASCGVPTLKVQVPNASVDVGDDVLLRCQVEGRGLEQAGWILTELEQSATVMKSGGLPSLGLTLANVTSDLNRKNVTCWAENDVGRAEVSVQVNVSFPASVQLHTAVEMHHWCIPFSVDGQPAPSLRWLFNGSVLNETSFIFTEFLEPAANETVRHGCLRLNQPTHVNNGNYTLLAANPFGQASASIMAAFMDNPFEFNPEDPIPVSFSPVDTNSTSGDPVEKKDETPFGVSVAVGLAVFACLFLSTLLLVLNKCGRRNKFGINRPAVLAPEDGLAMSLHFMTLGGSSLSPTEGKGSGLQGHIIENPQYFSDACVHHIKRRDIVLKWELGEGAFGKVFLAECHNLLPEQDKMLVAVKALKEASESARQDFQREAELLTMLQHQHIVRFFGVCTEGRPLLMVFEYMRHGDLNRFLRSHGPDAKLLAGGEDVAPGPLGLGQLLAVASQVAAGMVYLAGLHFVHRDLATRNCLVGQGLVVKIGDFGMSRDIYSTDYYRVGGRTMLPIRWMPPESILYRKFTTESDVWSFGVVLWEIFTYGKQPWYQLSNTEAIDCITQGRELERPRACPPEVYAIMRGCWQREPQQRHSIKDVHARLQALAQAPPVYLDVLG

Row | Binder | Kd
1 | B1 | 2.79 nM
2 | B2 | 2.27 nM
